This assay addresses T1, hen egg-white lysozyme (hen, UniProt P00698 19-147).
T1 construct: mature; also called HEL; target substance
Kind of assay: SPR (BIAcore X), HEL amine-coupled to CM5 chip, polypeptide at 50, 100 and 200 nM in PBS-T. As for the experimental part:
The strains are cultured at 30° C. for 16 hours in ampicillin (100 μg/ml)-selective LB medium. IPTG is added thereto at the final concentration of 1 mM, followed by additional 16-hour culture to induce protein expression. The bacterial cells collected by centrifugation are subjected to osmotic pressure treatment (the bacterial cells are mixed with 0.5 M sucrose solution and supplemented with a 5-fold volume of pure water) and disrupted by French press to obtain as soluble fractions, the proteins of interest present in the E. coli periplasms. Next, the functional polypeptide chains are purified with HEL columns (HEL is adsorbed and immobilized onto CNBr-activated Sepharose 4B (Code No. 17-0430-01 (Amersham)); the immobilization is performed according to the accompanying protocol). The binding ability between the functional polypeptides and the target substances (HEL) is evaluated by using BIAcore (registered trademark) X (SPR measurement apparatus). […] Next, the molarity of the functional polypeptide chain is adjusted to 50 nM, 100 nM and 200 nM for the first functional polypeptide chain (HyHEL10 scFv-(G4S)3-WinZipA1), the second functional polypeptide chain (D1.3 scFv-(G4S)3-WinZipB1) and a 1:1 mixture of the first and second functional polypeptide chains by using PBS-T (0.1% Tween 20) buffer. […]

T1 sequence (P00698 19-147): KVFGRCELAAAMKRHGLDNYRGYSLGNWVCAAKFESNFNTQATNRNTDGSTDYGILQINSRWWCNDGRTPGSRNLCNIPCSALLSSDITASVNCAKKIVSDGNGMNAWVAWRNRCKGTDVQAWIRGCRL

B1: HyHEL10 scFv-(G4S)3-WinZipA1 (scFv)
scFv: DIQLQESGPSLVKPSQTLSLTCSVTGDSITSDYWSWIRKFPGNRLEYMGYVSYSGSTYYNPSLKSRISITRDTSKNQYYLDLNSVTTEDTATYYCANWDGDYWGQGTLVTVSAGGGGSGGGGSGGGGSDIVLTQSPATLSVTPGNSVSLSCRASQSIGNNLHWYQQKSHESPRLLIKYASQSISGIPSRFSGSGSGTDFTLSINSVETEDFGMYFCQQSNSWPYTFGGGTKLIITAGGGGSGGGGSGGGGSTVAQLEEKVKTLRAQNYELKSRVQRLREQVAQLA
notes: Secreted from E. coli with the pelB signal of a modified pET-20b(+) vector and purified on a HEL column; also called first functional polypeptide chain; first polypeptide chain
As to B1, the Kd – broadly, the free concentration of one partner at which half of the binding sites on the other are occupied at equilibrium, for simple one-to-one binding – came to 0.3 nM.

(Values after patent US20060275811A1 (CANON, published 2006).)
